Laboratory results as given in the supplement of paper PMC10567573.

B1: EPB41L3 (parent)
chain: KKFLTLGSKFRYSGRTQAQTRRAS

Variants of: B1
Experiment: protein stability index of a GFP-peptide fusion (GPS, HEK-293T) (PSI 1-6); higher = more stable
Settings: c terminus: a fixed tail appended
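Further: lentivirally expressed fusions sorted by FACS into six bins by GFP to DsRed ratio, PSI derived from sequencing read proportions per bin multiplied by bin number.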

| Variant | protein stability index |
| --- | --- |
| KKFLTLGSKFRYSGRTSAQTRRAS | 2.01 |
| KKFLTLGSKFRYSGRTIAQTRRAS | 2.57 |
| KKFLTLGSKFRYSGRTCAQTRRAS | 2.94 |
| KKFGTLGSKFRYSGRTQAQTRRAS | 3.36 |
| KKFFTLGSKFRYSGRTQAQTRRAS | 2.99 |
| KKFVTLGSKFRYSGRTQAQTRRAS | 3.02 |
| KKFCTLGSKFRYSGRTQAQTRRAS | 3.06 |
| KKFSTLGSKFRYSGRTQAQTRRAS | 2.91 |
| KKFNTLGSKFRYSGRTQAQTRRAS | 3.44 |
| KKFDTLGSKFRYSGRTQAQTRRAS | 3.63 |
| KKFATLGSKFRYSGRTQAQTRRAS | 2.98 |
| KKFLTLGSKFRYSGRTQAQTNRAS | 2.1 |
| KKFLTLGSKFRYSGRTQAQTSRAS | 3.24 |
| KKFLTLGSKFRYSGRTQAQNRRAS | 2.62 |
| KKFLTLGSKFRYSGRTQAQGRRAS | 1.9 |
| KKFLTLGSKFRYSGRTQAQVRRAS | 3.28 |
| KKFLTLGSKFRYSGRTQAQSRRAS | 3.56 |
| KKFLTLGSKFRYSGRTQAQMRRAS | 2.32 |
| KKFLTLGSKFRYSGRTQAQTRMAS | 1.75 |
| KKFLTLGSKFRYSGRTQAQTRSAS | 2.7 |
| KKFLTLGSKFRYSGRTQAQTRAAS | 2.08 |
| KKFLTLGSKFRYSGRTQAQTRQAS | 2.44 |
| KKFLTLGSKFRYSGRTQAQTRDAS | 2.24 |
| KNFLTLGSKFRYSGRTQAQTRRAS | 2.85 |

| Variant | protein stability index |
| --- | --- |
| KYFLTLGSKFRYSGRTQAQTRRAS | 2.22 |
| KDFLTLGSKFRYSGRTQAQTRRAS | 2.44 |
| KVFLTLGSKFRYSGRTQAQTRRAS | 2.23 |
| KSFLTLGSKFRYSGRTQAQTRRAS | 2.74 |
| KQFLTLGSKFRYSGRTQAQTRRAS | 2.06 |
| KTFLTLGSKFRYSGRTQAQTRRAS | 2.44 |
| KRFLTLGSKFRYSGRTQAQTRRAS | 4.02 |
| KHFLTLGSKFRYSGRTQAQTRRAS | 2.4 |
| KGFLTLGSKFRYSGRTQAQTRRAS | 2.59 |
| KAFLTLGSKFRYSGRTQAQTRRAS | 2.14 |
| KKFLTLGIKFRYSGRTQAQTRRAS | 2.33 |
| KKFLTLGVKFRYSGRTQAQTRRAS | 2.81 |
| KKFLTLGNKFRYSGRTQAQTRRAS | 2.89 |
| KKFLTLGKKFRYSGRTQAQTRRAS | 2.56 |
| KKFLTLGQKFRYSGRTQAQTRRAS | 2.78 |
| KKFLTLGRKFRYSGRTQAQTRRAS | 3.46 |
| KKFLTLGSKFRYSGRNQAQTRRAS | 3.28 |
| KKFLTLGSKFRYSGRQQAQTRRAS | 2.94 |
| KKFLTLGSKFRYSGRSQAQTRRAS | 3.36 |
| KKFLTLGSKFRYSGRGQAQTRRAS | 2.54 |
| KKFLTLGSKFRYSGRYQAQTRRAS | 3.72 |
| KKFLTLGSKFRYSGRHQAQTRRAS | 2.93 |
| KKFLTLGSKFRYSGRDQAQTRRAS | 2.87 |
| KKFLTLGSKFRYSGRTQAQTRRAI | 2.5 |

| Variant | protein stability index |
| --- | --- |
| KKFLTLGSKFRYSGRTQAQTRRAH | 2.25 |
| KKFLTLGSKFRYSGRTQAQTRRAK | 3.64 |
| KKFLTLGSKFRYSGRTQAQTRRAN | 2.83 |
| KKFLTLGSKFRYSGRTQAQTRRAP | 2.57 |
| KKFLTLGSKFRYSGRTQAQTRRAD | 3.31 |
| KKFLTLGSKFRTSGRTQAQTRRAS | 3.96 |
| KKFLTLGSKFRQSGRTQAQTRRAS | 3.82 |
| KKFLTLGSKFRRSGRTQAQTRRAS | 4.02 |
| KKFLTLGSKFRKSGRTQAQTRRAS | 3.01 |
| KKFLRLGSKFRYSGRTQAQTRRAS | 3.06 |
| KKFLGLGSKFRYSGRTQAQTRRAS | 3.25 |
| KKFLQLGSKFRYSGRTQAQTRRAS | 3.38 |
| KKFLTLGSKFRYSGRTQEQTRRAS | 3.23 |
| KKFLTLGSKFRYSGRTQNQTRRAS | 3.55 |
| KKFLTLGSKFRYSGRTQKQTRRAS | 2.61 |
| KKFLTLGSKFRYSGRTQQQTRRAS | 2.73 |
| KKCLTLGSKFRYSGRTQAQTRRAS | 3.76 |
| KKELTLGSKFRYSGRTQAQTRRAS | 3.11 |
| KKKLTLGSKFRYSGRTQAQTRRAS | 3.65 |
| KKALTLGSKFRYSGRTQAQTRRAS | 3.62 |
| KKILTLGSKFRYSGRTQAQTRRAS | 3.32 |
| KKHLTLGSKFRYSGRTQAQTRRAS | 3.82 |
| KKPLTLGSKFRYSGRTQAQTRRAS | 3.6 |
| KKFLTQGSKFRYSGRTQAQTRRAS | 3.97 |

| Variant | protein stability index |
| --- | --- |
| KKFLTCGSKFRYSGRTQAQTRRAS | 3.17 |
| KKFLTVGSKFRYSGRTQAQTRRAS | 3.61 |
| KKFLTSGSKFRYSGRTQAQTRRAS | 2.52 |
| KKFLTMGSKFRYSGRTQAQTRRAS | 2.64 |
| KKFLTNGSKFRYSGRTQAQTRRAS | 3.44 |
| KKFLTIGSKFRYSGRTQAQTRRAS | 2.75 |
| KKFLTHGSKFRYSGRTQAQTRRAS | 3.38 |
| KKFLTLTSKFRYSGRTQAQTRRAS | 3.58 |
| KKFLTLASKFRYSGRTQAQTRRAS | 2.95 |
| KKFLTLMSKFRYSGRTQAQTRRAS | 2.09 |
| KKFLTLGSKLRYSGRTQAQTRRAS | 4.09 |
| KKFLTLGSKMRYSGRTQAQTRRAS | 3.59 |
| KKFLTLGSKWRYSGRTQAQTRRAS | 2.77 |
| KKFLTLGSKKRYSGRTQAQTRRAS | 4.16 |
| KKFLTLGSKFRYSGKTQAQTRRAS | 2.85 |
| KKFLTLGSKFRYSGGTQAQTRRAS | 2.33 |
| KKFLTLGSKFRYSGETQAQTRRAS | 2.89 |
| KKFLTLGSKFRYSGNTQAQTRRAS | 2.77 |
| KKFLTLGSKFRYSGTTQAQTRRAS | 3.4 |
| KKFLTLGSKFRYSGATQAQTRRAS | 3.32 |
| KKFLTLGSKFRYSGQTQAQTRRAS | 3.3 |
| KKFLTLGSKFRYSGCTQAQTRRAS | 2.66 |
